Columns and labels:
GST-WRNIP1 [1] = biological target: T1, GST-WRNIP1 (Homo sapiens, UniProt Q96S55 1-665); test: fluorescence anisotropy; Hill n 0.96; Anisotropy: 10 nM DNA, 50 mM Tris-HCl pH 7.5, 90 mM KCl, 5 mM EDTA, with or without 1 mM ATP and 1.25 mM MgCl2, 25 C; EMSA: 50 nM DNA, 50 mM Tris-HCl pH 7.5, 150 mM KCl, 15 min 25 C, 6% native gel; DNA folded in 25 mM Tris-HCl pH 7.5, 50 mM KCl; settings: protein: recombinant; (GST fusion); label: 5' FITC
T1 sequence: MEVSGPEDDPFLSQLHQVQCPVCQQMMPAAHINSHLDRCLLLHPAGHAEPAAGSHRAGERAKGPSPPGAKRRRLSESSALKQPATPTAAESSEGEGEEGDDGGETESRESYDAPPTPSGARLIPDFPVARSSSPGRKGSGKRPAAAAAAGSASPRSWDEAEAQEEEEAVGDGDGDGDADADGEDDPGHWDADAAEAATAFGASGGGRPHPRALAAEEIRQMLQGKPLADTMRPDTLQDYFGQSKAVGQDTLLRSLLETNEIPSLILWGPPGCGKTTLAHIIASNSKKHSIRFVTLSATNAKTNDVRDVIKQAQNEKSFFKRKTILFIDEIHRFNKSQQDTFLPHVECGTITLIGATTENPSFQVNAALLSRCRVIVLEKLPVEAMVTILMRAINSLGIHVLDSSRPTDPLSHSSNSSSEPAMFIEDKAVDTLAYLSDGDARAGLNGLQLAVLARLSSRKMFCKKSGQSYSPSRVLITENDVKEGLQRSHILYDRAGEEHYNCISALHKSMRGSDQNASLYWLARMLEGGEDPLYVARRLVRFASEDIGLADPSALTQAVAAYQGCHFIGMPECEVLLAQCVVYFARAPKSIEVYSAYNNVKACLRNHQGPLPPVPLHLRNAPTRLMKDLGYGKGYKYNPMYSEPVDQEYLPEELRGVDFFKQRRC

GST-WRNIP1 [2] = biological target: T1, GST-WRNIP1; test: fluorescence anisotropy; Hill n 0.95; Anisotropy: 10 nM DNA, 50 mM Tris-HCl pH 7.5, 90 mM KCl, 5 mM EDTA, with or without 1 mM ATP and 1.25 mM MgCl2, 25 C; EMSA: 50 nM DNA, 50 mM Tris-HCl pH 7.5, 150 mM KCl, 15 min 25 C, 6% native gel; DNA folded in 25 mM Tris-HCl pH 7.5, 50 mM KCl; settings: protein: recombinant; (GST fusion); label: 5' FITC; intramolecular G4 with 3' ssDNA tail
GST-WRNIP1 [3] = biological target: T1, GST-WRNIP1; test: fluorescence anisotropy; Hill n 1.1; Anisotropy: 10 nM DNA, 50 mM Tris-HCl pH 7.5, 90 mM KCl, 5 mM EDTA, with or without 1 mM ATP and 1.25 mM MgCl2, 25 C; EMSA: 50 nM DNA, 50 mM Tris-HCl pH 7.5, 150 mM KCl, 15 min 25 C, 6% native gel; DNA folded in 25 mM Tris-HCl pH 7.5, 50 mM KCl; settings: protein: recombinant; (GST fusion); label: 5' FITC on strand 1; 21 bp duplex at 3' end of strand 1; 5' ss G4 overhang 27 nt; strand 2 5' TTT overhang
GST-WRNIP1 [4] = biological target: T1, GST-WRNIP1; test: fluorescence anisotropy; Hill n 0.55; Anisotropy: 10 nM DNA, 50 mM Tris-HCl pH 7.5, 90 mM KCl, 5 mM EDTA, with or without 1 mM ATP and 1.25 mM MgCl2, 25 C; EMSA: 50 nM DNA, 50 mM Tris-HCl pH 7.5, 150 mM KCl, 15 min 25 C, 6% native gel; DNA folded in 25 mM Tris-HCl pH 7.5, 50 mM KCl; settings: protein: recombinant; (GST fusion); label: 5' FITC; intramolecular G4 with 3' ssDNA tail of 21 nt
GST-WRNIP1 [5] = biological target: T1, GST-WRNIP1; test: fluorescence anisotropy; 1 mM ATP; Hill n 0.66; Anisotropy: 10 nM DNA, 50 mM Tris-HCl pH 7.5, 90 mM KCl, 5 mM EDTA, with or without 1 mM ATP and 1.25 mM MgCl2, 25 C; EMSA: 50 nM DNA, 50 mM Tris-HCl pH 7.5, 150 mM KCl, 15 min 25 C, 6% native gel; DNA folded in 25 mM Tris-HCl pH 7.5, 50 mM KCl; settings: protein: recombinant; (GST fusion); label: 5' FITC; intramolecular G4 with 3' ssDNA tail of 21 nt
GST-WRNIP1 [6] = biological target: T1, GST-WRNIP1; test: fluorescence anisotropy; no ATP (ATP comparison series); Hill n 0.72; Anisotropy: 10 nM DNA, 50 mM Tris-HCl pH 7.5, 90 mM KCl, 5 mM EDTA, with or without 1 mM ATP and 1.25 mM MgCl2, 25 C; EMSA: 50 nM DNA, 50 mM Tris-HCl pH 7.5, 150 mM KCl, 15 min 25 C, 6% native gel; DNA folded in 25 mM Tris-HCl pH 7.5, 50 mM KCl; settings: protein: recombinant; (GST fusion); label: 5' FITC; intramolecular G4 with 3' ssDNA tail of 21 nt
GST-WRNIP1 [7] = biological target: T1, GST-WRNIP1; test: fluorescence anisotropy; Hill n 0.88; Anisotropy: 10 nM DNA, 50 mM Tris-HCl pH 7.5, 90 mM KCl, 5 mM EDTA, with or without 1 mM ATP and 1.25 mM MgCl2, 25 C; EMSA: 50 nM DNA, 50 mM Tris-HCl pH 7.5, 150 mM KCl, 15 min 25 C, 6% native gel; DNA folded in 25 mM Tris-HCl pH 7.5, 50 mM KCl; settings: protein: recombinant; (GST fusion); label: 5' FITC on strand 1; 21 bp duplex at 3' end of strand 1; 5' ss G4 overhang 21 nt; strand 2 5' TTT overhang

ACTCCCACCCATCCCACCCACGCAGACGCCGACCGAGCTCCG (ssDNA) [C-rich control]
Kd (GST-WRNIP1 [1]): 3500 ± 511 nM

AAGGGTGGGTGTAAGTGTGGGTGGGTGCGTCTGCGGCTGGCTCGAGGC (structured_DNA) [CEB G4 ss (CEB25)]
Kd (GST-WRNIP1 [2]): 65 ± 6 nM

B1: CEB G4 partial duplex (structured_DNA)
DNA 1: AAGGGTGGGTGTAAGTGTGGGTGGGTGCGTCTGCGGCTGGCTCGAGGC
DNA 2: TTTGCCTCGAGCCAGCCGCAGACG
Kd (GST-WRNIP1 [3]): 221 ± 44 nM

TGAGGGTGGGTAGGGTGGGTGCGTCTGCGGCTGGCTCGAGGC (structured_DNA) [MYC G4 ss (Myc2345)]
Kd (GST-WRNIP1 [4]): 184 ± 36 nM
Kd (GST-WRNIP1 [5]): 183 ± 52 nM
Kd (GST-WRNIP1 [6]): 175 ± 43 nM

B2: MYC G4 partial duplex (structured_DNA)
DNA 1: TGAGGGTGGGTAGGGTGGGTGCGTCTGCGGCTGGCTCGAGGC
DNA 2: TTTGCCTCGAGCCAGCCGCAGACG
Kd (GST-WRNIP1 [7]): 108 ± 45 nM
